Reference: PMC4620443, “Screening and Identifying a Novel ssDNA Aptamer against Alpha-fetoprotein Using CE-SELEX”

Biological target: T1, alpha-fetoprotein (AFP) (UniProt P02771 19-609)
T1 sequence: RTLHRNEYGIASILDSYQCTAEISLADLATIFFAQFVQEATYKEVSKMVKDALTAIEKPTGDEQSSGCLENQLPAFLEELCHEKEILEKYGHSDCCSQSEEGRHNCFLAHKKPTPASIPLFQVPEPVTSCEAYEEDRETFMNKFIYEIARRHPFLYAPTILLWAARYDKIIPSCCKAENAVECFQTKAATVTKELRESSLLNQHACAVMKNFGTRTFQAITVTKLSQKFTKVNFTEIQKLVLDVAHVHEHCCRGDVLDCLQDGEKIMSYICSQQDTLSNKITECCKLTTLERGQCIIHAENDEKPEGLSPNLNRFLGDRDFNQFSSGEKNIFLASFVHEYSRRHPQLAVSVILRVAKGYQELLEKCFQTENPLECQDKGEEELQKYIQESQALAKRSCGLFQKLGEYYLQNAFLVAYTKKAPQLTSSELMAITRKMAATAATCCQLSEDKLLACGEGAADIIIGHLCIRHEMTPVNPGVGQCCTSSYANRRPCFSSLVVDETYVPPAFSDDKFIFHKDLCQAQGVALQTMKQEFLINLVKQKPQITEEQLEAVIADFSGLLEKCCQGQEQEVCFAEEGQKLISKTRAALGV
Experiment: capillary electrophoresis (CE-LIF); CE-LIF: 10 uM FAM-aptamer with 100 ug/ml AFP, 25 C, PVA-coated capillary, -8 kV with 0.5 psi; CE buffer composition and pH not given in the material
Settings: protein: commercial; label: 5' 6-FAM

B1: AP206 (ssDNA)
DNA: GTGACGCTCCTAACGCTGACTTTTAATTCTTGTTTATTGGTATATCCGCCTCTGACCTGTCCGTCCGAACCAATC
B1: binds.

B2: AP211 (ssDNA)
DNA: GTGACGCTCCTAACGCTGACTTTTTGGGAATGCGTATGTATGCTCGCCACGTACGCCTGTCCGTCCGAACCAATC
B2: no binding.

B3: AP244 (ssDNA)
DNA: GTGACGCTCCTAACGCTGACGGCCCGTCAATCCCCGCGTATCCATTGGTCCTTTACCTGTCCGTCCGAACCAATC
With B3 the Kd was 4.8 µM.

B4: AP250 (ssDNA)
DNA: GTGACGCTCCTAACGCTGACACAGTTGCTAAGAGCCGCCTCTGAACCTATCGAGGCCTGTCCGTCCGAACCAATC
B4: binds.

B5: AP273 (ssDNA)
DNA: GTGACGCTCCTAACGCTGACTCAGGTGCAGTTCTCGACTCGGTCTTGATGTGGGTCCTGTCCGTCCGAACCAATC
B5 showed a Kd of 0.5 µM.
